{
  "source": "patent US20160159924A1",
  "about": "(Novo Nordisk, published 2016)",
  "binders": {"B1": {"name": "rec0266-0000-0010-VH_D98K (antibody, mouse IgG1, V domains shown)", "VH": "DVKLVESGGGLVKPGGSLKLSCVASGFTFSSYTMSWVRQTPEKRLEWVATISGGGSHIYYADSVKGRFTISRDNAKNTLYLQMSSLKSEDTAIYYCTRDGRKGSWFAYWGQGTLVTVSA", "VL": "DIVMTQSPATLSVTPGDRVSLSCRTSQSIGDYLHWYQQKSHESPRLLIKYVSQSISGIPSRFSGSGSGSDFTLSINSVESEDVGVYYCQNSHSFPLTFGSGTKLELKR"}, "B2": {"name": "rec0266-0000-0010-VH_G96E (antibody, mouse IgG1, V domains shown)", "VH": "B1 VH with G100E, K102D", "VL": "B1 VL"}, "B3": {"name": "rec0266-0000-0010-VH_G96L (antibody, mouse IgG1, V domains shown)", "VH": "B1 VH with G100L, K102D", "VL": "B1 VL"}, "B4": {"name": "rec0266-0000-0010-VH_D98P (antibody, mouse IgG1, V domains shown)", "VH": "B1 VH with K102P", "VL": "B1 VL"}, "B5": {"name": "rec0266-0000-0010-VH_G99K (antibody, mouse IgG1, V domains shown)", "VH": "B1 VH with K102D, G103K", "VL": "B1 VL"}, "B6": {"name": "rec0266-0000-0010-VH_G96A (antibody, mouse IgG1, V domains shown)", "VH": "B1 VH with G100A, K102D", "VL": "B1 VL"}, "B7": {"name": "rec0266-0000-0010-VH_G99F (antibody, mouse IgG1, V domains shown)", "VH": "B1 VH with K102D, G103F", "VL": "B1 VL"}, "B8": {"name": "rec0266-0000-0010-VH_G96V (antibody, mouse IgG1, V domains shown)", "VH": "B1 VH with G100V, K102D", "VL": "B1 VL"}, "B9": {"name": "rec0266-0000-0010-VH_D98Y (antibody, mouse IgG1, V domains shown)", "VH": "B1 VH with K102Y", "VL": "B1 VL"}, "B10": {"name": "rec0266-0000-0010-VH_G96I (antibody, mouse IgG1, V domains shown)", "VH": "B1 VH with G100I, K102D", "VL": "B1 VL"}, "B11": {"name": "rec0266-0000-0010-VH_G96K (antibody, mouse IgG1, V domains shown)", "VH": "B1 VH with G100K, K102D", "VL": "B1 VL"}, "B12": {"name": "rec0266-0000-0010-VH_G99P (antibody, mouse IgG1, V domains shown)", "VH": "B1 VH with K102D, G103P", "VL": "B1 VL"}, "B13": {"name": "rec0266-0000-0010-VH_G96H (antibody, mouse IgG1, V domains shown)", "VH": "B1 VH with G100H, K102D", "VL": "B1 VL"}, "B14": {"name": "rec0266-0000-0010-VH_G99T (antibody, mouse IgG1, V domains shown)", "VH": "B1 VH with K102D, G103T", "VL": "B1 VL"}, "B15": {"name": "rec0266-0000-0010-VH_G99A (antibody, mouse IgG1, V domains shown)", "VH": "B1 VH with K102D, G103A", "VL": "B1 VL"}, "B16": {"name": "rec0266-0000-0010-VH_G99I (antibody, mouse IgG1, V domains shown)", "VH": "B1 VH with K102D, G103I", "VL": "B1 VL"}, "B17": {"name": "rec0266-0000-0010-VH_G99E (antibody, mouse IgG1, V domains shown)", "VH": "B1 VH with K102D, G103E", "VL": "B1 VL"}, "B18": {"name": "rec0266-0000-0010-VH_G99L (antibody, mouse IgG1, V domains shown)", "VH": "B1 VH with K102D, G103L", "VL": "B1 VL"}, "B19": {"name": "rec0266-0000-0010-VH_D98V (antibody, mouse IgG1, V domains shown)", "VH": "B1 VH with K102V", "VL": "B1 VL"}, "B20": {"name": "rec0266-0000-0010-VH_G99V (antibody, mouse IgG1, V domains shown)", "VH": "B1 VH with K102D, G103V", "VL": "B1 VL"}, "B21": {"name": "rec0266-0000-0010-VH_G96T (antibody, mouse IgG1, V domains shown)", "VH": "B1 VH with G100T, K102D", "VL": "B1 VL"}, "B22": {"name": "rec0266-0000-0010-VH_D98S (antibody, mouse IgG1, V domains shown)", "VH": "B1 VH with K102S", "VL": "B1 VL"}, "B23": {"name": "rec0266-0000-0010-VH_G99R (antibody, mouse IgG1, V domains shown)", "VH": "B1 VH with K102D, G103R", "VL": "B1 VL"}, "B24": {"name": "rec0266-0000-0010-VH_G99N (antibody, mouse IgG1, V domains shown)", "VH": "B1 VH with K102D, G103N", "VL": "B1 VL"}, "B25": {"name": "rec0266-0000-0010-VH_G96N (antibody, mouse IgG1, V domains shown)", "VH": "B1 VH with G100N, K102D", "VL": "B1 VL"}, "B26": {"name": "rec0266-0000-0010-VH_G96R (antibody, mouse IgG1, V domains shown)", "VH": "B1 VH with G100R, K102D", "VL": "B1 VL"}, "B27": {"name": "rec0266-0000-0010-VH_D98T (antibody, mouse IgG1, V domains shown)", "VH": "B1 VH with K102T", "VL": "B1 VL"}, "B28": {"name": "rec0266-0000-0010-VH_D98L (antibody, mouse IgG1, V domains shown)", "VH": "B1 VH with K102L", "VL": "B1 VL"}, "B29": {"name": "rec0266-0000-0010-VH_G99H (antibody, mouse IgG1, V domains shown)", "VH": "B1 VH with K102D, G103H", "VL": "B1 VL"}, "B30": {"name": "rec0266-0000-0010-VH_D98R (antibody, mouse IgG1, V domains shown)", "VH": "B1 VH with K102R", "VL": "B1 VL"}, "B31": {"name": "rec0266-0000-0010-VH_G99S (antibody, mouse IgG1, V domains shown)", "VH": "B1 VH with K102D, G103S", "VL": "B1 VL"}, "B32": {"name": "rec0266-0000-0010-VH_G96Y (antibody, mouse IgG1, V domains shown)", "VH": "B1 VH with G100Y, K102D", "VL": "B1 VL"}, "B33": {"name": "rec0266-0000-0010-VH_G96S (antibody, mouse IgG1, V domains shown)", "VH": "B1 VH with G100S, K102D", "VL": "B1 VL"}, "B34": {"name": "rec0266-0000-0010-VH_G96F (antibody, mouse IgG1, V domains shown)", "VH": "B1 VH with G100F, K102D", "VL": "B1 VL"}, "B35": {"name": "rec0266-0000-0010-VH_G96P (antibody, mouse IgG1, V domains shown)", "VH": "B1 VH with G100P, K102D", "VL": "B1 VL"}},
  "note": "Residue numbers refer to the chain shown, from its start.",
  "data": [
    {"target": "T1, recombinant human sc-uPA (human, UniProt P00749 21-431)", "T1 construct": "411 amino acid single-chain zymogen expressed in HEK293; the 20-residue signal peptide is not present in the mature protein; also called human single-chain uPA; pro-uPA", "experiment": "SPR, mAb immobilised", "experimental": "The binding affinity to recombinant human sc-uPA protein (SEQ ID NO:1) was measured by surface plasmon resonance (SPR).\nThe experiments were performed on a Biacore™ instrument (GE Healthcare) and analysed with the BIAcore 4000 Evaluation Software. Anti-human uPA mAb variants were directly immobilized at 150-600 RU on flow cells of a CM5 sensor chip (GE Healthcare; cat. # BR-1000-12) via amine coupling, respectively. Recombinant human sc-uPA was diluted in HBS-N (GE Healthcare Cat BR-1006-70) with 1% BSA buffer with a dilution factor 3× ranging 1000-0.13 nM. Recombinant human sc-uPA was injected for 60 s, followed by a 600 s dissociation phase. Binding curves were measured at 25° C. with a flow rate of 30 μL/min. Regeneration of the chip surface was performed with pH1.5 Glycine for 25 s at 30 μl/min. Determination of the kinetic parameters was performed by fitting with a 1:1 binding model. Binding affinities were calculated and are stated in Table 17 below.", "units": {"Kd": "nM"}, "values": [
      {"binder": "B1", "Kd": 2},
      {"binder": "B2", "Kd": 2.3},
      {"binder": "B3", "Kd": 1.9},
      {"binder": "B4", "Kd": 0.98},
      {"binder": "B5", "Kd": 4.8},
      {"binder": "B6", "Kd": 1.5},
      {"binder": "B7", "Kd": 1.7},
      {"binder": "B8", "Kd": 2.1},
      {"binder": "B9", "Kd": 1.8},
      {"binder": "B10", "Kd": 1.8},
      {"binder": "B11", "Kd": 0.95},
      {"binder": "B12", "Kd": 2.5},
      {"binder": "B13", "Kd": 5.8},
      {"binder": "B14", "Kd": 5.4},
      {"binder": "B15", "Kd": 2.4},
      {"binder": "B16", "Kd": 4.6},
      {"binder": "B17", "Kd": 1.4},
      {"binder": "B18", "Kd": 2.1},
      {"binder": "B19", "Kd": 2.1},
      {"binder": "B20", "Kd": 2.5},
      {"binder": "B21", "Kd": 3},
      {"binder": "B22", "Kd": 14},
      {"binder": "B23", "Kd": 15},
      {"binder": "B24", "Kd": 18},
      {"binder": "B25", "Kd": 21},
      {"binder": "B26", "Kd": 3},
      {"binder": "B27", "Kd": 2.2},
      {"binder": "B28", "Kd": 2},
      {"binder": "B29", "Kd": 27},
      {"binder": "B30", "Kd": 1.1},
      {"binder": "B31", "Kd": 0.41},
      {"binder": "B32", "Kd": 13},
      {"binder": "B33", "Kd": 1.3},
      {"binder": "B34", "Kd": 7.2},
      {"binder": "B35", "Kd": 2.1}
    ]}
  ]
}
